Measurements reported in the DeepSol protein solubility set.

Assay: soluble on expression in E. coli; label from the status in PepcDB or PDB records

Soluble on expression in E. coli, not soluble:
MGSDKIHHHHHHMITIVKKVRNEIIRKIYRIPLFSNTADIAYQTAITQHTNHLPYLADSDLSLVKNLQEEGIVITSLTELSIPSTMEMLQAAKLLKTKIPINIAGNQNEFTVHASSEQIREHSSIFFWGLQERLLNIVENYLGLSVAYHGAYFRRDINNQVRKKSRLWHLDKEDRKMLKIIIYLNDVNEDGGPFEYIPKSLTSHISKSLKYDDTYIKDETMDQVVSSSYWQPCTGKSGAVIFVDTANIFHRGKLPLSSDRLSIFFDYTTRQPKHPFYCKSSLSNKDLLAVSAELSENQKQCIFWQHNYN
PTAQQLQLTTLDGKPFDPAGLKGKWLLGVADQAACPESCARKLFITRNSHASQGKNVDRVQRVWFITDDGEVPQKVLDAYRGTLMLRARPEQLGRYLLGQDAAAPAALLGPMWVIDPLGNLMLQFPPDVDGVKVRKDISRLLYNSR
MRRYLMDYSQYNLEKTGYLKEDFRLFHINDQTKKDFSYHYHDFHKIIVFISGKVTYHIEGKAYHLKPRDILLVSQGAIHKPEIDPSVPYERYIFWIRDDLSCQELNTCFQKANDRSFNLVRADSALQERLKDLLPEIEQTLQNKHFGDTVLRNALFTQFMIYINRIFLRTSSSPDKKTYSSDTQ
MGSDKIHHHHHHLSSPMRLSFLAAAFAAPLVVSASGAGAAEPTRYPLTLQTCGQTITFDRAPSRVVSIGQSSTEILYLLGLADKVVGTALWVGPVIAGYEAVDAKVPRLADNDPSFESVVGKKPDLVTNQYQWQVGPKGVVATNAQFAELKIPVYTSPADCVGKDNSEGGDGLRTSRFTTDLIYQEIEDLARIFDVSERGEVLINDLKAREAAAKKKIASLRSPVSAVFWFSSADLDIDPYVAGSDGAPGYILSVLGITNVIKSEEEWPTVGWETIAKANPTIIVAGEMTRRRFPVDDIAVKKTFLANDPVTRLMPAVQEGRIVPLDAQAMNPTIRTIEGIEVVADAVIKAGLAQ

Soluble on expression in E. coli, soluble:
MITSDSHMHTRFSTDSDADIRDMIESALKKGLQSICITDHIDKDYPFHEDTGAEAFLVDLDEYFPKLAEWKEAYAEKIQIRRGIELGLQPHLAGFYEELTNQYPFDFVIGSVHVVHGMDPYYGEIFEGRSDEEVYKETFLATLENLDAVSSFDVLGHLDYVVRYGKCQARQYSYKKYAQEIDEILKKVIAMGKGIELNTAGWKYGLAFCHPHPEILCRYKELGGEIITVGSDAHKPEHVAYDFQKAADVLKACGFKYYTEFQDRKPIFKQLL
SDGPERDFNLKVVLISFKKCLTDKGEVLLDHYTASWKGLVRFLNSLGAVFSFISKDVVSKLQIMEHLRSGPQSEHYISLQSMVAYEVSNKLVDRDSRSRPRHPNSGCRTVLRLHRALHWLQLFLEGLRTSSEDARTSTLCSEAYNATLAAYHSWIVRQAVNVAFHALPPRKVFLEAMNMGSSEQAVEMLGEALPFIEQVYDISQKLYAEHSLLDLP
RGRGPEAAAQEEAEEVGRSGPGRRAAQRRSPGLAMLLASAVVVWEWLNEHGRWRPYSPAVSHHIEAVVRAGPRAGGSVVLGQVDSRLAPYIIDLQSMNQFRQDTGTLRPVRRNYYDPSSAPGKGVVWEWENDNGSWTPYDMEVGITIQHAYEKQHPWIDLTSIGFSYVIDFNTMGQINRQTQRQRRVRRRLDLIYPMVTGTLPKAQSWPVSPGPATSPPMSPCSCPQCVLVMSVKAAVVNGSTGPLQLPVTRKNMPPPGVVKLPPLPGSGAKPLDSTGTIRGPLKTAPSQVIRRQASSMPTGTTMGSPASPPGPNSKTGRVALATLNRTNLQRLAIAQSRVLIASGVPTVPVKNLNGSSPVNPALAGITGILMSAAGLPVCLTRPPKLVLHPPPVSKSEIKSIPGVSNTSRKTTKKQAKKGKTPEEVLKKYLQKVRHPPDEDCTICMERLTAPSGYKGPQPTVKPDLVGKLSRCGHVYHIYCLVAMYNNGNKDGSLQCPTCKTIYGVKTGTQPPGKMEYHLIPHSLPGHPDCKTIRIIYSIPPGIQGPEHPNPGKSFSARGFPRHCYLPDSEKGRKVLKLLLVAWDRRLIFAIGTSSTTGESDTVIWNEVHHKTEFGSNLTGHGYPDANYLDNVLAELAAQGISEDSTAQEKD
